From the supplement of paper PMC10567573
± gives the standard deviation.

Experiment: protein stability index of a GFP-peptide fusion (GPS, HEK-293T) (PSI 1-6); higher = more stable
[1] = treatment: DMSO, c terminus: a fixed tail appended
[2] = treatment: MLN4924 1 uM, 8 h, c terminus: a fixed tail appended
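Further: 24-mer peptide tiles fused after GFP, lentivirally expressed, FACS-sorted into six equal bins by GFP/DsRed ratio, decoded by Illumina sequencing, PSI is the read-weighted mean bin number.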

Sequence | protein stability index [1] | protein stability index [2] | protein stability index (treatment: DMSO, c terminus: native) | protein stability index (treatment: MLN4924 1 uM, 8 h, c terminus: native)
TRYSVAGLSPYSDYEFRVVAVNNI [PTPRD] | 2.51 ± 0.35 | 2.61 ± 0.37 | – | –
LDITNPKAVLENALRNFACLTTGD [UFD1] | 2.65 ± 0.21 | 2.46 ± 0.19 | – | –
SSTSCLMPSKLFAGLVHVKQCIVA [CRYL1] | 2.44 ± 0.31 | 2.11 ± 0.25 | – | –
FIPAKTGKDVATQILEGELFDFDL [RSPH3] | 2.7 ± 0.48 | 2.89 ± 0.56 | – | –
EQGKPVIPAAVLAGFTGSGPIQLW [ETS2] | 2.55 ± 0.43 | 2.54 ± 0.16 | – | –
VHKTKEQFGQDGPISVHCSAGVGR [PTPRD] | 4.02 ± 0.23 | 4.15 ± 0.25 | – | –
LPGPAFESYESMELACPAERSGHV [KLHDC2] | 4.41 ± 0.17 | 4.45 ± 0.33 | – | –
CVSRNSHLTSVTSESEQEFLYKTA [CD207] | 3.34 ± 0.51 | 3.81 ± 0.17 | – | –
LCGQAAGAASLPSELIVHIFSFLP [FBXO33] | 2.54 ± 0.72 | 2.29 ± 0.18 | – | –
LPRSEDDDCDDDDDDAQILPSPVQ [DRICH1] | 5.5 ± 0.11 | 5.53 ± 0.27 | – | –
PTRCLPGHKEEEDGEGAGPGEQGG [ESRRA] | 5.68 ± 0.3 | 5.38 ± 0.26 | – | –
IANPNSLHHVKTMWYPEIKHFCPR [RHOBTB2] | 2.36 ± 0.25 | 2.64 ± 0.2 | – | –
EGYWLPGDEISIKKKNTNKQEMGT [ZMYND11] | 4.7 ± 0.17 | 4.58 ± 0.084 | – | –
GSIPEFFHIMKRKFTNKEWETIRS [AASDHPPT] | 2.73 ± 0.27 | 2.46 ± 0.3 | – | –
GNTVPAVEPGTPPLDILAQPLEAS [DNAAF3] | 5.19 ± 0.18 | 5.03 ± 0.29 | – | –
KTKWTKEDGHRTSTSAVPNLFVPL [ADD1] | 3.27 ± 0.26 | 3.22 ± 0.28 | – | –
RGAPAVQQNIPSTLLQDHENQRLF [WAS] | 4.25 ± 0.2 | 4.29 ± 0.15 | – | –
PKRRWLFWNSPSSPSSSAASSSSP [RHOBTB2] | 3.57 ± 0.2 | 3.75 ± 0.18 | – | –
PYVCHAELNAIMNKNSTDVKGCSM [DCTD] | 3.41 ± 0.22 | 3.43 ± 0.33 | – | –
REDDKLVVECVMKGVTSTRVYERA [FABP4] | 3.68 ± 0.38 | 4.09 ± 0.29 | – | –
GPADCSPPHPAPAPQHPAASALRT [DYRK1B] | 4.81 ± 0.24 | 4.92 ± 0.15 | – | –
FEKHRWPPVWYLKEEDHYQRARKE [RHOBTB2] | 3.26 ± 0.3 | 3.52 ± 0.5 | – | –

Sequence | protein stability index [1] | protein stability index [2] | protein stability index (treatment: DMSO, c terminus: native) | protein stability index (treatment: MLN4924 1 uM, 8 h, c terminus: native)
RINLVAAIFSAPAFPAAVSSMKKF [PSD2] | 2.37 ± 0.46 | 2.27 ± 0.59 | – | –
NGDITSFLLSVYAPGSSVEYQCQN [CFHR2] | 2.38 ± 0.58 | 2.09 ± 0.24 | – | –
GLSLCQFQNFSLHDPLYGKLFSTY [LPCAT4] | 1.81 ± 0.56 | 2.06 ± 0.21 | – | –
ELPPSLRAPPPGGWPLQPRVQWG [ZMAT5] | – | – | 2.75 ± 0.33 | 2.82 ± 0.099
KELIIFRLVAPTEGSLEWDILEVK [WDR41] | 2.22 ± 0.24 | 2.21 ± 0.4 | – | –
QKEQGLSDNILSPVMNGGVQTWTQ [PDZK1] | 2.84 ± 0.5 | 3.32 ± 0.71 | – | –
KKIPIISNAMLVGDKLKFLSMLLT [ACSBG2] | 2.3 ± 0.79 | 2.47 ± 0.6 | – | –
RGTYEQDGRFEKRQGNPSWKKQQK [ZNF396] | 4.63 ± 0.34 | 4.72 ± 0.41 | – | –
KEQNNLKQLEFGLKEAPVQDQGYK [ZNF8] | 5.08 ± 0.2 | 5.25 ± 0.17 | – | –
QLDWDELETNQQHFHALCHSLLVS [M1AP] | 2.3 ± 0.29 | 2.69 ± 0.45 | – | –
TDIDLQTIDNDIVSMEIFFKAWLH [M1AP] | 2.39 ± 0.33 | 2.34 ± 0.45 | – | –
DRENGSDNLPSSAGSGDKPLSDPA [TPD52L2] | 5.49 ± 0.26 | 5.45 ± 0.29 | – | –
GPDGQEMDPPNPEEVKTPEEEMRS [GAGE1] | 5.7 ± 0.3 | 5.38 ± 0.42 | – | –
LLDADWSINAGSWMWLSCSSFFQQ [CRY1] | 2.67 ± 1.1 | 2.57 ± 0.22 | – | –
SYGPVILVVLVVAVVASSVNSYYS [TOR1AIP2] | 3.57 ± 0.3 | 2.85 ± 0.095 | – | –
KVLLDCGADPDSRDFDNNTPLHIA [FEM1A] | 4.02 ± 0.17 | 4.07 ± 0.15 | – | –
ASSPYISSVQSYPGSASLAQSRLE [DLX1] | 3.92 ± 0.18 | 4.13 ± 0.14 | – | –
TPTLKVFMHENLYFTNRKVNSVCW [DCAF4] | 2.26 ± 0.4 | 1.95 ± 0.22 | – | –
VDNSCDWALGVCNNSWIRKNSTMV [TRIM43] | 2.49 ± 0.34 | 2.5 ± 0.44 | – | –
VGLNTIADLWYLFGDLSLSLVTVG [POMT2] | 3.71 ± 0.08 | 3.16 ± 0.79 | – | –
LRHKDEEEEDDDDIHITARIESDL [DRICH1] | 5.41 ± 0.12 | 5.37 ± 0.18 | – | –
AALCALGKDCFLELAPDFVGDILW [ETS1] | 2.51 ± 0.41 | 2.95 ± 0.77 | – | –

Sequence | protein stability index [1] | protein stability index [2] | protein stability index (treatment: DMSO, c terminus: native) | protein stability index (treatment: MLN4924 1 uM, 8 h, c terminus: native)
DGKLFPSDGFRDCKKGDPKHGKRK [ELF3] | 5.1 ± 0.29 | 5.38 ± 0.26 | – | –
GKRYCRGKVLGKGGFAKCYEMTDL [PLK2] | 2.79 ± 0.35 | 2.92 ± 0.27 | – | –
VALGHAYHPEEFVCSQCGKVLEEG [PDLIM7] | 3.93 ± 0.34 | 4.03 ± 0.11 | – | –
NQIMPKTGFLIIILAIIAKEGDCA [MAGEA6] | 2.98 ± 0.45 | 2.47 ± 0.61 | – | –
LTRMTRVSEFLKVAEQVGIDKGDI [SNAP91] | 3.39 ± 0.23 | 3.48 ± 0.23 | – | –
PVAAQFTSEGTTLSGVDLELVGSG [FCHO1] | 4.54 ± 0.17 | 4.57 ± 0.24 | – | –
KVVKSAQHYTETALDEIKLLKCVR [SRPK2] | 2.72 ± 0.32 | 2.68 ± 0.21 | – | –
SNAMLVGDKLKFLSMLLTLKCEMN [ACSBG2] | 2.66 ± 0.62 | 2.52 ± 0.052 | – | –
VSNTRLIAAATSVLKTRFSYAFPK [CCNC] | 2.24 ± 0.44 | 1.96 ± 0.34 | – | –
MAEHRSMDGRMEAATRGGSHLQAA [SCNN1D] | 4.56 ± 0.27 | 4.648 ± 0.04 | – | –
RILLRMTLGREVMSPLQAMSSYTV [NLN] | 2.67 ± 1.1 | 2.45 ± 0.32 | – | –
TFDHEHHTTIVATRHYRPPEVILE [CLK3] | 3.34 ± 0.19 | 3.29 ± 0.17 | – | –
GANINAFDKKDRRALHWAAYMGHL [ANKRD44] | 2.3 ± 0.21 | 2.36 ± 0.31 | – | –
AGSSTWERYFIPVSCFLTFNIFDW [SLC29A1] | 3.09 ± 0.2 | 3.05 ± 0.58 | – | –
LPSPVQACSEDSLFLRCSLRHKDE [DRICH1] | 4.31 ± 0.15 | 4.48 ± 0.2 | – | –
SCRRKQEDDRDGLLAEREQEEAIA [TMEM106C] | 5.45 ± 0.33 | 5.42 ± 0.091 | – | –
FTAKHANKVKVLDAPVPDCLGVHC [FSD1] | 2.75 ± 0.26 | 3.04 ± 0.31 | – | –
MTPAEAEMHFLENAKKLSMYGVDL [EPB41L3] | 3 ± 0.29 | 3.03 ± 0.52 | – | –
VQEQQKQLQDQDQKLLEQTQIIGE [FBXO28] | 5.43 ± 0.28 | 5.36 ± 0.09 | – | –
GTKLIFRRRPRQKEAGLSQSHDDL [C2CD2L] | 4.03 ± 0.46 | 4.04 ± 0.3 | – | –
TSHRRVTDVRGLEEFLSAMQSARG [PLEKHN1] | 3.33 ± 0.31 | 3.42 ± 0.26 | – | –
AILYYYQSGGRLRRPVNVPLDMFS [KCNA1] | 2.69 ± 0.84 | 2.29 ± 0.42 | – | –
